# Experimental data reported in US20180009871A1 (INTARCIA THERAPEUTICS, published 2018).
# Where no end group is shown, it is not given here. [ ]: non-standard residue; d: D form. Formula III = not defined here; Formula II = not defined here; Aib = CC(C)(N)C(=O)O
# B1: Compound A27 (peptide)
# peptide: YSHGTFTSDYSKYLD[Aib]KRAQEFV[Aib]WLEDEGGPSSGAPPPS-OH
# modifications: N-terminus assumed
# SMILES: CC(C)C[C@H](NC(=O)[C@H](Cc1ccc(O)cc1)NC(=O)[C@H](CCCCN)NC(=O)[C@H](CO)NC(=O)[C@H](Cc1ccc(O)cc1)NC(=O)[C@H](CC(=O)O)NC(=O)[C@H](CO)NC(=O)[C@@H](NC(=O)[C@H](Cc1ccccc1)NC(=O)[C@@H](NC(=O)CNC(=O)[C@H](Cc1c[nH]cn1)NC(=O)[C@H](CO)NC(=O)[C@@H](N)Cc1ccc(O)cc1)[C@@H](C)O)[C@@H](C)O)C(=O)N[C@@H](CC(=O)O)C(=O)NC(C)(C)C(=O)N[C@@H](CCCCN)C(=O)N[C@@H](CCCNC(=N)N)C(=O)N[C@@H](C)C(=O)N[C@@H](CCC(N)=O)C(=O)N[C@@H](CCC(=O)O)C(=O)N[C@@H](Cc1ccccc1)C(=O)N[C@H](C(=O)NC(C)(C)C(=O)N[C@@H](Cc1c[nH]c2ccccc12)C(=O)N[C@@H](CC(C)C)C(=O)N[C@@H](CCC(=O)O)C(=O)N[C@@H](CC(=O)O)C(=O)N[C@@H](CCC(=O)O)C(=O)NCC(=O)NCC(=O)N1CCC[C@H]1C(=O)N[C@@H](CO)C(=O)N[C@@H](CO)C(=O)NCC(=O)N[C@@H](C)C(=O)N1CCC[C@H]1C(=O)N1CCC[C@H]1C(=O)N1CCC[C@H]1C(=O)N[C@@H](CO)C(=O)O)C(C)C
# B2: Compound A25 (peptide)
# peptide: YSHGTFTSDYSKYLD[Aib]KRAQEFV[Aib]WLEDEPSSGAPPPSS-OH
# modifications: N-terminus assumed
# SMILES: CC(C)C[C@H](NC(=O)[C@H](Cc1ccc(O)cc1)NC(=O)[C@H](CCCCN)NC(=O)[C@H](CO)NC(=O)[C@H](Cc1ccc(O)cc1)NC(=O)[C@H](CC(=O)O)NC(=O)[C@H](CO)NC(=O)[C@@H](NC(=O)[C@H](Cc1ccccc1)NC(=O)[C@@H](NC(=O)CNC(=O)[C@H](Cc1c[nH]cn1)NC(=O)[C@H](CO)NC(=O)[C@@H](N)Cc1ccc(O)cc1)[C@@H](C)O)[C@@H](C)O)C(=O)N[C@@H](CC(=O)O)C(=O)NC(C)(C)C(=O)N[C@@H](CCCCN)C(=O)N[C@@H](CCCNC(=N)N)C(=O)N[C@@H](C)C(=O)N[C@@H](CCC(N)=O)C(=O)N[C@@H](CCC(=O)O)C(=O)N[C@@H](Cc1ccccc1)C(=O)N[C@H](C(=O)NC(C)(C)C(=O)N[C@@H](Cc1c[nH]c2ccccc12)C(=O)N[C@@H](CC(C)C)C(=O)N[C@@H](CCC(=O)O)C(=O)N[C@@H](CC(=O)O)C(=O)N[C@@H](CCC(=O)O)C(=O)N1CCC[C@H]1C(=O)N[C@@H](CO)C(=O)N[C@@H](CO)C(=O)NCC(=O)N[C@@H](C)C(=O)N1CCC[C@H]1C(=O)N1CCC[C@H]1C(=O)N1CCC[C@H]1C(=O)N[C@@H](CO)C(=O)N[C@@H](CO)C(=O)O)C(C)C
# B3: Compound A26 (peptide)
# peptide: YSHGTFTSDYSKYLD[Aib]KRAQEFV[Aib]WLEDEPSSGAPPPSE-OH
# modifications: N-terminus assumed
# SMILES: CC(C)C[C@H](NC(=O)[C@H](Cc1ccc(O)cc1)NC(=O)[C@H](CCCCN)NC(=O)[C@H](CO)NC(=O)[C@H](Cc1ccc(O)cc1)NC(=O)[C@H](CC(=O)O)NC(=O)[C@H](CO)NC(=O)[C@@H](NC(=O)[C@H](Cc1ccccc1)NC(=O)[C@@H](NC(=O)CNC(=O)[C@H](Cc1c[nH]cn1)NC(=O)[C@H](CO)NC(=O)[C@@H](N)Cc1ccc(O)cc1)[C@@H](C)O)[C@@H](C)O)C(=O)N[C@@H](CC(=O)O)C(=O)NC(C)(C)C(=O)N[C@@H](CCCCN)C(=O)N[C@@H](CCCNC(=N)N)C(=O)N[C@@H](C)C(=O)N[C@@H](CCC(N)=O)C(=O)N[C@@H](CCC(=O)O)C(=O)N[C@@H](Cc1ccccc1)C(=O)N[C@H](C(=O)NC(C)(C)C(=O)N[C@@H](Cc1c[nH]c2ccccc12)C(=O)N[C@@H](CC(C)C)C(=O)N[C@@H](CCC(=O)O)C(=O)N[C@@H](CC(=O)O)C(=O)N[C@@H](CCC(=O)O)C(=O)N1CCC[C@H]1C(=O)N[C@@H](CO)C(=O)N[C@@H](CO)C(=O)NCC(=O)N[C@@H](C)C(=O)N1CCC[C@H]1C(=O)N1CCC[C@H]1C(=O)N1CCC[C@H]1C(=O)N[C@@H](CO)C(=O)N[C@@H](CCC(=O)O)C(=O)O)C(C)C
# B4: Compound B10 (peptide)
# peptide: YSHGTFTSDYSKYLD[Aib]KSAQEFVKWLEDEPSSGAPPPS-OH
# modifications: not fully specified (residue 24); printed as YSHGTFTSDYSKYLD(Aib)KSAQEFVK****WLEDEPSSGAPPPS-OH; also: structure of Formula II substituent not given here
# Molecular target: human glucagon receptor (GCGR) (human, UniProt P47871 26-477)
# Test: cell-based or functional assay
row,Binder,hGCGR pEC50 (cAMP)
1,B1,12.1 pEC50
2,B2,11.3 pEC50
3,B3,11.1 pEC50

# Molecular target: human GLP-1 receptor (GLP-1R) (human, UniProt P43220 24-463)
# Test: cell-based or functional assay
# Target sequence in this assay (P43220 24-463): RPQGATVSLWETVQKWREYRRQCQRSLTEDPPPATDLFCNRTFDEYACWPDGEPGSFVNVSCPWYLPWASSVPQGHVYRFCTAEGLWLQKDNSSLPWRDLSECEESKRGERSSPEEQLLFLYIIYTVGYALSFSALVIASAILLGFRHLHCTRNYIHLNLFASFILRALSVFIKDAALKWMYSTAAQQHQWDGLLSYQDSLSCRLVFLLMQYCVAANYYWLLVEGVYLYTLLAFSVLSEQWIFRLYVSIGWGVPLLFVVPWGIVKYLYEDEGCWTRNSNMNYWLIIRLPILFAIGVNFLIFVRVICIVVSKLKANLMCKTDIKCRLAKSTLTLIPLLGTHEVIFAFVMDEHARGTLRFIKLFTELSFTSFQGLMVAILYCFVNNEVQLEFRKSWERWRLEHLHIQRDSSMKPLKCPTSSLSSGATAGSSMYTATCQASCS
row,Binder,hGLP1 pEC50 (cAMP)
1,B1,< 9 pEC50
2,B2,< 9 pEC50
3,B3,< 9 pEC50

# Molecular target: human glucagon receptor (GCGR) (human, UniProt P47871 26-477)
# Test: cell-based or functional assay
# Remark: another data set of the same source
row,Binder,GluR pEC 50
1,B4,9.9 pEC50
2,YSHGTFTSDYSKYLD[Aib]KSAQEFV[Aib]WLEDEPSSK(Formula II)APPPS-OH (reading uncertain) [Compound B9],11.1 pEC50
3,YSHGTFTSDYSKYLDK(Formula II)KSAQEFV[Aib]WLEDEPSSGAPPPS-OH (reading uncertain) [Compound B11],10.3 pEC50
4,YSHGTFTSDK(Formula III)SKYLD[Aib]KYAQEFV[Aib]WLEDEPSSGAPPPS-OH (reading uncertain) [Compound B8],10.6 pEC50
5,YSHGTFTSDYSKYLDK(Formula III)KYAQEFV[Aib]WLEDEPSSGAPPPS-OH (reading uncertain) [Compound B7],8.6 pEC50
6,YSHGTFTSDYSKYLD[Aib]KYAQEFVK(Formula III)WLEDEPSSGAPPPS-OH (reading uncertain) [Compound B6],10.1 pEC50
7,YSHGTFTSDYSKYLD[Aib]KYAQEFVK(Formula II)WLEDEPSSGAPPPS-OH (reading uncertain) [Compound B2],11.1 pEC50
8,YSHGTFTSDYSKYLD[Aib]KYAQEFV[Aib]WLEDEPSSK(Formula III)APPPS-OH (reading uncertain) [Compound B5],9.6 pEC50
9,YSHGTFTSDYSKYLDK(Formula II)KYAQEFV[Aib]WLEDEPSSGAPPPS-OH (reading uncertain) [Compound B3],11.4 pEC50
10,YSHGTFTSDK(Formula II)SKYLD[Aib]KYAQEFV[Aib]WLEDEPSSGAPPPS-OH (reading uncertain) [Compound B4],9.1 pEC50
11,YSHGTFTSDK(Formula II)SKYLD[Aib]KSAQEFV[Aib]WLEDEPSSGAPPPS-OH (reading uncertain) [Compound B12],11.5 pEC50

# Molecular target: human GLP-1 receptor (GLP-1R) (human, UniProt P43220 24-463)
# Test: cell-based or functional assay
# Remark: another data set of the same source
# Target sequence in this assay (P43220 24-463): as above
row,Binder,GLP-1R pEC 50
1,B4,< 6 pEC50
2,YSHGTFTSDYSKYLD[Aib]KSAQEFV[Aib]WLEDEPSSK(Formula II)APPPS-OH (reading uncertain) [Compound B9],< 6 pEC50
3,YSHGTFTSDYSKYLDK(Formula II)KSAQEFV[Aib]WLEDEPSSGAPPPS-OH (reading uncertain) [Compound B11],6.3 pEC50
4,YSHGTFTSDK(Formula III)SKYLD[Aib]KYAQEFV[Aib]WLEDEPSSGAPPPS-OH (reading uncertain) [Compound B8],< 6 pEC50
5,YSHGTFTSDYSKYLDK(Formula III)KYAQEFV[Aib]WLEDEPSSGAPPPS-OH (reading uncertain) [Compound B7],< 6 pEC50
6,YSHGTFTSDYSKYLD[Aib]KYAQEFVK(Formula III)WLEDEPSSGAPPPS-OH (reading uncertain) [Compound B6],< 6 pEC50
7,YSHGTFTSDYSKYLD[Aib]KYAQEFVK(Formula II)WLEDEPSSGAPPPS-OH (reading uncertain) [Compound B2],< 6 pEC50
8,YSHGTFTSDYSKYLD[Aib]KYAQEFV[Aib]WLEDEPSSK(Formula III)APPPS-OH (reading uncertain) [Compound B5],< 6 pEC50
9,YSHGTFTSDYSKYLDK(Formula II)KYAQEFV[Aib]WLEDEPSSGAPPPS-OH (reading uncertain) [Compound B3],< 6 pEC50
10,YSHGTFTSDK(Formula II)SKYLD[Aib]KYAQEFV[Aib]WLEDEPSSGAPPPS-OH (reading uncertain) [Compound B4],< 6 pEC50
11,YSHGTFTSDK(Formula II)SKYLD[Aib]KSAQEFV[Aib]WLEDEPSSGAPPPS-OH (reading uncertain) [Compound B12],7.2 pEC50
